US20230075095A1 (University of Washington, published 2023)

Molecular target: the molecule itself
Experiment: negative-stain TEM, homomeric self-assembly
Experimental: FIG. 2(a-b). Transmission electron micrographs of degreased I3-01 constructs. […] Images taken at 22,000× magnification.
Samples were prepared for negative stain EM by diluting to 0.05-0.075 mg/mL using a Tris-based buffer, and 6.0 μL was incubated on a glow-discharged, copper, carbon-coated grid for 1 min before quickly immersing the grid in a 60 μL drop of water. The water was blotted off within seconds by Whatman™ No. 1 filter paper, and the grid was immediately dipped into a 6.0 μL drop of stain (2% w/v uranyl formate). The stain was immediately blotted away and within seconds the grid was dipped into another 6.0 μL drop of stain, which was left on the grid for 30 seconds. At the end of this time, the stain was blotted dry and allowed to air dry for 5 minutes prior to imaging. Images were recorded on a FEI Morgagni 268 transmission electron microscope equipped with a Gatan US4000 CCD camera, using Leginon™ software for data collection at a nominal magnification of 22,000× at a defocus range comprised between −1 um and −4 um.

| Protein | binding result |
| --- | --- |
| I3-01 H35D (designed binder, One-component (homomeric) icosahedral nanoparticle secreted from HEK293F cells; also called H35D variant; degreased I3-01 construct) YKDEKMEELFKKHKIVAVLRANSVEEAKKKALAVFLGGVDLIEITFTVPDADTVIKELSFLKEMGAIIGAGTVTSVEQCRKAVESGAEFIVSPHLDEEISQFCKEKGVFYMPGVMTPTELVKAMKLGHTILKLFPGEVVGPQFVKAMKGPFPNVKFVPTGGVNLDNVCEWFKAGVLAVGVGSALVKGTPVEVAEKAKAFVEKIRGCTEQKLISEEDLHHHHHH | binds |
| I3-01 'secretion mutations' (H35D/L171Q/S177E/V180N) (designed binder, One-component (homomeric) icosahedral nanoparticle secreted from HEK293F cells; also called H35D/L171Q/S177E/V180N quadruple mutant) YKDEKMEELFKKHKIVAVLRANSVEEAKKKALAVFLGGVDLIEITFTVPDADTVIKELSFLKEMGAIIGAGTVTSVEQCRKAVESGAEFIVSPHLDEEISQFCKEKGVFYMPGVMTPTELVKAMKLGHTILKLFPGEVVGPQFVKAMKGPFPNVKFVPTGGVNLDNVCEWFKAGVQAVGVGEALNKGTPVEVAEKAKAFVEKIRGCTEQKLISEEDLHHHHHH | binds |
